How the values were obtained:
Test in all cases: SEC
[1] = target: SARS-CoV-2 Nsp15 V128F (SARS-CoV-2)
[2] = target: SARS-CoV-2 Nsp15 W333C (SARS-CoV-2)
[3] = target: SARS-CoV-2 Nsp15 H235Y (SARS-CoV-2)
[4] = target: SARS-CoV-2 Nsp15 K13N (SARS-CoV-2)
[5] = target: SARS-CoV-2 Nsp15 K13R (SARS-CoV-2)
[6] = target: SARS-CoV-2 Nsp15 T115A (SARS-CoV-2)
[7] = target: SARS-CoV-2 Nsp15 K290N (SARS-CoV-2)
[8] = target: SARS-CoV-2 Nsp15 A93S (SARS-CoV-2)
[9] = target: SARS-CoV-2 Nsp15 G18E (SARS-CoV-2)
[10] = target: SARS-CoV-2 Nsp15 K260R (SARS-CoV-2)
[11] = target: SARS-CoV-2 Nsp15 D220Y (SARS-CoV-2)
[12] = target: SARS-CoV-2 Nsp15 L163F (SARS-CoV-2)
[13] = target: SARS-CoV-2 Nsp15 R207S (SARS-CoV-2)
[14] = target: SARS-CoV-2 Nsp15 T34I (SARS-CoV-2)
[15] = target: SARS-CoV-2 Nsp15 G18R (SARS-CoV-2)
[16] = target: SARS-CoV-2 Nsp15 D133Y (SARS-CoV-2)
[17] = target: SARS-CoV-2 Nsp15 P206S (SARS-CoV-2)

SARS-CoV-2 Nsp15 V128F (enzyme)
Hex/Mono Ratio [1]: 0.5

SARS-CoV-2 Nsp15 W333C (enzyme)
Hex/Mono Ratio [2]: 0.77

SARS-CoV-2 Nsp15 H235Y (enzyme)
Hex/Mono Ratio [3]: 1.61

SARS-CoV-2 Nsp15 K13N (enzyme)
Hex/Mono Ratio [4]: 0.63

SARS-CoV-2 Nsp15 K13R (enzyme)
Hex/Mono Ratio [5]: 1.18

SARS-CoV-2 Nsp15 T115A (enzyme)
Hex/Mono Ratio [6]: 0.55

SARS-CoV-2 Nsp15 K290N (enzyme)
Hex/Mono Ratio [7]: 2.12

SARS-CoV-2 Nsp15 A93S (enzyme)
Hex/Mono Ratio [8]: 0.49

SARS-CoV-2 Nsp15 G18E (enzyme)
Hex/Mono Ratio [9]: 0.56

SARS-CoV-2 Nsp15 K260R (enzyme)
Hex/Mono Ratio [10]: 1.8

SARS-CoV-2 Nsp15 D220Y (enzyme)
Hex/Mono Ratio [11]: 0.63

SARS-CoV-2 Nsp15 L163F (enzyme)
Hex/Mono Ratio [12]: 0.23

SARS-CoV-2 Nsp15 R207S (enzyme)
Hex/Mono Ratio [13]: 0.14

SARS-CoV-2 Nsp15 T34I (enzyme)
Hex/Mono Ratio [14]: 1.01

SARS-CoV-2 Nsp15 G18R (enzyme)
Hex/Mono Ratio [15]: 0.88

SARS-CoV-2 Nsp15 D133Y (enzyme)
Hex/Mono Ratio [16]: 0.48

SARS-CoV-2 Nsp15 P206S (enzyme)
Hex/Mono Ratio [17]: 2.49

— article doi:10.1101/2022.05.10.491349
